# Reference: the domain aggregation screens of Martell et al. (2025)
# Experiment: soluble fraction after stress (log2 fold change); higher = more stays soluble; pooled small domains, quantitative proteomics
# Settings: stress: 50 degC
# In short: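 Custom libraries of small protein domains were pooled and measured in a high-throughput format, with quantitative proteomics as the read-out. Each library was stressed at 50°C. The value is the log2 fold change in the amount of each protein that stays soluble after stress, used as a measure of aggregation propensity; higher values mean more of the protein stays soluble.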
row,Sequence,soluble fraction (log2)
1,HMEDEVSSSAAYQALLEKGVSKTLARSWVIDYGEAYVLDKVDLTTSQAARGKIKSSTAGFLKAAIEEDFHN,-0.244
2,HMAQLSDDEQAIIDTITRRGDATMSELIASVNVSTPRLMSMLIDMEFRSLITALPGGRYQIRLIN,-0.912
3,HMNIGVEQIEQMERGALITLWQELIDKPLPRHMSIVFLRQVLAFEVQSKQNGGLPRGFITLLNKQAD,-0.824
4,HMARTGSEELVGALATVREPLAPWGQVFVQGALWRARSADGGPVDAGQQVVVRAVEGLTLVVEPRD,0.00428
5,HMGESVVVPDLRGKTLEEARAILKKVDLDYEINDSTYSKTAVPGTIRDIVPAPGSHVKAGRILFVSING,-0.145
6,HMVPEEEATKISVQNVGASDYNFTVKGVQANDPTLTLVRGKTYEFDVTSLGHPFWIKTQKVTGSSSQY,0.1
7,HMKDYQGEISVVASGERIDVYLFNYFNLFSRTKIKNHIKNGNILVNENIISPSYILKQNDKIAFNLGAPY,-2.39
8,HMPEEGPSEDGNSFTAKFKLGSDVQGAMEQADAAAKAGLQDAGKGTGQITSRAQVGGYIYSTATA,0.0661
9,HMQLSQLLQPFDINAFKGHPLYTEENVKMFNDYTNRVKEWTKGTPYEQYWVTKEGQPTMLAWDSFKK,-0.972
10,HMAVTEVKTTAVVNMRSSDSEKADKLGKAQIGDTFRVLEQRANGWTKLTDGTQEFFIKSEYLEAIA,0.0956
11,HMFTDAEIKQFAAAAVEVTKIQQDSTISAADKQPKMLAVVQSSGLPPEKFNQIGQAAAADPALQQRIQA,0.156
12,HMPMHPEDLKKLVSIEMPFGKHKGRIIADLPGNYLNWFAREGFPPGEIGRLLQLMQEIDHNGLSDLLKPLR,-0.3
13,HMTVEVFQSLVQTFREMSPRKAASILEELKRDLAVEILLHMPEDGVAAILARMDPARAARLTEQLALEKD,-0.979
14,HMVPLSPRFFDIFRKRKDLTRQNVDVYFRDHPTEITAFERYIKGLVSQSYIPAERADALLLVASQYKAK,-0.784
15,HMKALHEEIAEKIQEQILRSNLAPGDKLDTELELAARYGVSRSTIRQALIQLESAGLIDRLHGRGTFVAD,0.425
16,HMEREQNIEHGRAIVERELKRLGLSDVYTIADIATALRHDDVDQFLAKIGFGDIQSTQIGGAIAALQQR,-0.0664
17,HMEKDEYIFVDIDGAVFNPGVYKLIAGSRVIDAINLAGGLKEKAFTQNLNKARKLVDGEKIYIYLEGDEE,-0.585
18,HMKDMKISTQNILKELATNYPDQTAFRKNVIESTAKSMGYTGKDFYPMLTAETRVKIGTYDLSALLQTV,-0.178
19,HMENYIEQLTAKNSEYIHVVTRELVKIGKSDEEIKAILSDILPQIVAAQDQRVLAKDILGTPSEFTAKYAP,0.173
20,HMDTIASESVRNRIEELISNENPKKPLSDQALVKMLQEFDIKIARRTVAKYREMLKIPPSSKRKQV,0.0652
21,HMQEEMIRGDIKLNTVMQTVHLAVGTETERNWQPVETTAKEFELLKLLMENPGVTLKKEYLFHMLI,-0.102
22,HMIHDSAESVVFPFGKYKGYTLAHVIREHPHYTYWIRDNADFSPLWREAVSLALQNRDIGHLNLPHVK,-0.416
23,HMNQEQQSAVMSALKATLPDLEAALEARQFKESKQLLKTAQNQFQQLDGRNRRGFQARIQLLAGQFRELS,-0.227
24,HMAPMYGEFENVRLTDAQLDKLNARFPPEQVQREIEALSGYMRSKGKRYADHYATLLNWLRRDFPP,-0.202
25,HMEMVSMPGLTGSTLEFATKTLTENELKYEVVYIVDASAESGLIIRTYPTEGEMVSKKTSTIYLYIKE,-0.756
26,HMRRARVAGKGHFTGEDAMAVYRELEALFGETETLYLPGHRPFEAVLSKLALIGVPEKNTVPYTFAFVET,-0.433
27,HMQISDSASVKTVVAEAIAANPKAVADFMNGKDTATRYLVGQVMKITKGQAKPELVNQLVLESLAELKEK,0.335
28,HMVMNYKKIGKKIADRRILLGITQEELAEKVDSSANYISNIETGIKSGSLIFYIKVANELKLSLDFLFSDE,-0.893

row,Sequence,soluble fraction (log2)
1,HMESIEGMYKISLLRKQGNAYVIFEDENKEAVEHIFPEKPTALELGTKVIEMFEYKERYDGLI,-0.366
2,HMTEDTPIIVERVVADIDENVVAIVRKFKDAFKSITAQREIKKKLRSILWVNYQIKDQEVFDKAYQYIEMY,0.0204
3,HMFNLFPHLSVLRNITLAPQKVKGLNRSESNEIAMSLLERVGIPEQSDKFPSQLSGGQQQRVAIARALAM,-0.402
4,HMPNPSAGRVHIDALLPFDRVEVTDMQGSLLLDHSFSPRRAVDLDLNARGTLLYTLWSKGHLLGKGRVVR,0.0169
5,HMSESAGKALDILFYLARVEDEVSLARLSKETGMNKATALRYLAVLESWGVVEKRPSGWSLGLSLFELGSK,-2.13
6,HMNPKTELMVYLKKRDEWVASQILSDVLQVSTRTIRKFVKEINMDYQTENVILSSSKGYKLNQNLLSSL,-1.2
7,HMDEDTWKLYKRAYKKYYARYMKGNMSEAAFKAWGEQAAADRDAAIEQLRATTDAALSASIIQQLKEKLNR,-0.581
8,HMKILKQLEAIIEKEGLNESAKQFYLREISELDKEKQQEIINLVDKMEQAGFKNNLASAFSEVTEDIPQF,-0.0195
9,HMEQIETIFLSAAPYARTHIIHLLETSELFRDKYLTIVETSNGLLIYTEDKNRLLGILNSLT,-1.9
10,HMSNNLAYSQFLDRVKNKEIRKVEIRGQSIVGYTSNNETFKTYAPLNDPKMYDELLTNDVQVQVDPP,0.0519
11,HMLVMTDNVIKAINDLLNYEAAAGIKKKQRYTAYQIYKELSEQGVYHGSRRRMEEVVSKLRVERNQI,-2.78
12,HMKSVFQPIYEDLLSRIQDGRLLPGMPLPSENALAVQYGTSRPTIRRAIGLLVEKSLVIRQPGIGSIVAS,-1.17
13,HMTENIPPVKIEEMRQKWQDIVLLHGVTSGRKIKSGQATYIWLYRNDQNWLLTFNSRHLSQPQV,0.145
14,HMKGWPDREQAEKIWQQGIDYAIEHHTMSPQIVKEYIFHTQGIARSAALIAARLPDMDTEKAYVLGLLHD,-0.214
15,HMDSSITLMRMYIPKGHNWENKLISDVSMPTNSLALMIKRNGTTIIPKGDTMILAKDTLILSVPSYEPS,-1.13
16,HMSNVIYFNYNDYKFLFMGDAGVDKETDILEKYTLSNIDFLKVGHHGSDTSSNKGFIDSIQPKYSLIS,-1.07
17,HMRQSDIAAAFRESILRSSKGFQYLHTRDFVTALRRRGIHLSEVEANSWIAREKTYFVDSALDHSENRLWI,-1.6
18,HMSASLPAAVEDPDLPYRVGAKLRHARWGEGLLVGIQREGSDVIATVHFASVGRKRLSLQYAHLEE,-0.41
19,HMLSTQEYIKKNIENGSWKVGEKIPSENNLTEILGVSRASIRVAIQQFIALDVLNSIHGKGTFVKTNNIMG,0.256
20,HMGDTISVPAVRTLAYNKAMDILNAEGLKGIVADSVYDNHTAPGTVIEQNPKAGTIVKEGREVFLTIHA,0.103
21,HMNISRESLIGQILATLNKNPEEGFNYKQIAKRLNITDSPGRQMISDLLRELSKHGSLQEISHGKYKIKV,-0.226
22,HMVTGSIYERKGIYYAIVSYYVDGRRKQKSVSTGLSVKGNKRRALEFLENLKRTYETKESMENMD,-3.16
23,HMKNLSQAEFMYLFKILAFGSTDPDNHPEMAATGMEIAKMLQGLLLSGNVLADILRKNQNVQFWL,-0.204
24,HMKEQYDLNDREQQFISLVANGLNNKEIAETLFLSEGTVRNYLSNLLDKLGLRDRTQLAIFFYQHL,-0.953
25,HMSNSMISKDKAMSIALAKVSGATSSNIYIELEKDDGRYTYEGEINFNNKEYEFEIDAYTGNILKWEVDSI,-0.333
26,HMAIKWTPEIEDEVSNKLKEKWSPEQISAWLKKNKSIMISHQRIYQFIVEDKMSGGNLYRNLRQ,-0.695
27,HMSDIQKGTQINLVNEPLYVSSKTSIVSTYKTGTYYTWGFEANNRIAITNKLENIGVKGQVTGWINKP,-1.1
